The Tm is the temperature at the midpoint of the melting transition.

Data set [1] in a line: Thermal stability of MBP-SUFU constructs. Format: physicochemical. To be noted: SYPRO Orange, 2.2 µM protein, no peptide, 50 mM Na HEPES pH 7.0, 50 mM NaCl, 5 mM β-mercaptoethanol; heated 20 to 90°C; triplicate. As for the experimental part:
Recombinant MBP-SUFU proteins were diluted to 2.6 µM in 50 mM Na HEPES pH 7.0, 50 mM NaCl, 5 mM β-mercaptoethanol; the peptides GLI1p and GLI1p-SH (Supplementary Table S1b), synthesized by Dr W. Mawby (University of Bristol), were dissolved in the same buffer. Proteins were spun at 14 000g for 20 min at 4°C before adding SYPRO Orange (Molecular Probes) to a final concentration of 6×. Reaction volumes of 25 µl were prepared in 96-well PCR plates with 2.2 µM protein/SYPRO Orange solution and, where applicable, 44 µM peptide. Plates were sealed with optical tape, heated from 20 to 90°C in 12 s 0.2°C steps in an iCycler and fluorescence was detected using an excitation wavelength of 470 nm and an emission wavelength of 570 nm.
To determine whether the IDR affects the GLI-binding properties of SUFU, we used a human GLI1-derived peptide (GLI1p; residues 115–131; Supplementary Table S1b) containing the highly conserved SYGH motif important for interaction with SUFU (Dunaeva et al., 2003[▶]) in a thermal stability assay with MBP-SUFU-FL and MBP-SUFU-Δ (Fig. 4 ▶ a). The addition of GLI1p stabilized both proteins: T m for MBP-SUFU-FL was shifted by 4°C and that for MBP-SUFU-Δ was shifted by 3.6°C. […] The GLI1 dose dependency of this effect was confirmed in a separate experiment with increasing GLI1p concentrations (Supplementary Fig. S7a).

A further data set relates to trypsin. The experiment in a line: Limited proteolysis with trypsin. It counts as physicochemical. To be noted: 100 mM ammonium bicarbonate, 23°C. As for the experimental part: SUFU32–484 cloned in pLJMBP6c was expressed in E. coli and purified as described above. The purified protein was digested with trypsin (Sigma–Aldrich) in 100 mM ammonium bicarbonate at 23°C. The protease was inactivated by adding 10 mM PMSF and sample-loading buffer followed by heating at 95°C for 5 min. Protein bands were separated by SDS–PAGE and visualized by Coomassie Blue staining. Proteolytic peptide fragments were identified by N-terminal sequencing (Alphalyse A/S) as well as MALDI–TOF and MALDI–TOF/TOF mass-spectrometric analyses (Ultraflex II and Autoflex III, Bruker Daltonics).

Another data set relates to GLI2. As to the kind of experiment: GLI2-induced reporter gene activity in HEK 293 cells. It counts as cell-based. To be noted: transient transfection, HEK 293, 12GLI-RE-TKO-luc luciferase reporter, 48 h. An excerpt: (§1) SUFU variants with mutated IDR regions, the SUFU-Δ, SUFU-SH, SUFU-SH2 and SUFU-IDRfly constructs, were generated by replacing amino acids 279–360 of N-terminally Myc-tagged full-length SUFU in pcDNA3.1 (Invitrogen) with corresponding sequences synthesized at GenScript USA Inc. (Supplementary Table S1a). HEK 293 cells were transfected with a mixture of GLI1-FLAG or Myc-GLI2 (Roessler et al., 2005[▶]; a kind gift from Erich Roessler) and Myc-SUFU constructs together with 12GLI-RE-TKO-luc luciferase reporter (Kogerman et al., 1999[▶]) and pRL-SV40 (Promega) internal control using Fugene 6 or X-tremeGENE 9 (Roche) transfection reagent. Expression assays were carried out for 48 h, followed by luciferase activity measurements using a Dual Luciferase Activity Assay Kit (Promega). To verify the expression levels of transfected SUFU and GLI constructs, aliquots of cell lysates were separated by SDS–PAGE and subjected to immunoblot analysis as above. The densities of the visualized protein bands were quantified using the ImageJ 1.47v image-analysis and image-processing software (Schneider et al., 2012[▶]).
In general terms: A reporter such as luciferase makes a cellular process visible.

Data set [2] relates to GLI1. The experiment in a line: GLI1-induced reporter gene activity in HEK 293 cells. It counts as cell-based. Particulars: transient transfection, HEK 293, 12GLI-RE-TKO-luc luciferase reporter, 48 h.
Source text: as §1

Data set [3] concerns GLI1. The experiment in a line: Co-immunoprecipitation with GLI1. It counts as binding. Particulars: Cos-7 cell lysates, GLI1-FLAG and Myc-SUFU; four independent experiments. As for the experimental part: Cos-7 cells were transfected separately with C-terminally FLAG-tagged GLI1 in pCMV5 (Andersson et al., 1989[▶]) and N-terminally Myc-tagged SUFU in pCMV-Script (Stratagene) using Fugene 6 (Roche). 24 h after transfection, the cells were lysed with 50 mM Tris–HCl pH 7.4, 150 mM NaCl, 1% NP-40, 0.25% sodium deoxycholate, 1 mM N-ethylmaleimide (Fluka), 1 mM dithiothreitol and cOmplete Mini protease inhibitors (Roche). Normalized lysates were combined and pre-incubated for 6 h. Co-immunoprecipitation was performed for 16 h using agarose-conjugated anti-FLAG M2 (Sigma–Aldrich) and anti-Myc 9b11 (Cell Signaling) antibodies. The beads were washed three times with 500 µl lysis buffer and the bound protein was eluted by boiling the beads in SDS–PAGE sample buffer and analyzed by Western blotting. Samples were separated by SDS–PAGE, transferred to polyvinylidene fluoride Immobilon-P membranes (Millipore) and probed using anti-Myc 71D10 (Cell Signaling) or anti-Myc 9E10 (Santa Cruz) antibodies and anti-DYKDDDDK tag antibody (Cell Signaling). Similar results were obtained in four independent experiments.

Data set [4] has as its system Hh pathway, Sufu −/− MEFs. As to the kind of experiment: Constitutive Hh pathway activity in Sufu −/− MEFs. Format: cell-based, mouse. Particulars: Gli-BS luciferase reporter. As for the experimental part:
Sufu ^−/− mouse embryonic fibroblast (MEF) cells (Svärd et al., 2006[▶]) were transfected with a mixture of p8x3′Gli-BS LucII or p8x3′Gli-mBS LucII reporter constructs (Sasaki et al., 1997[▶]; generous gifts from Hiroshi Sasaki) together with pRL-SV40 (Promega) internal control using Lipofectamine LTX with Plus reagent (Invitrogen) according to the manufacturer’s instructions. Following transfection, Sufu ^−/− MEF cells were grown until the culture reached confluency (24–48 h) and the cells were then switched to low-serum medium (0.5% FBS) with 100–200 nM SAG (kindly provided by Jan Bergman, Karolinska Institutet), 10 µM purmorphamine (Calbiochem) or Shh conditioned medium (1:4) and grown for an additional 48–72 h. Cell lysis and luciferase activity measurements were performed using a Dual Luciferase Activity Assay Kit (Promega). For statistical evaluation of reporter gene assays, a one-tailed paired Student’s t-test was used. All activity measurements were performed at least three times in independent experiments.

For data set [5] the following is noted: R123C germline mutation; ref Aavikko et al., 2012; cited from earlier work. An excerpt: SUFU is a tumour suppressor protein that is found to be inactivated most frequently (up to 50%) by germline mutations in children below the age of three presenting with medulloblastoma of the desmoplastic/nodular subtype (Slade et al., 2011[▶]; Brugières et al., 2012[▶]), whereas a somatic mutation frequency of about 10% has been reported for sporadic medulloblastomas of the desmoplastic subtype (Taylor et al., 2002[▶]). Moreover, germline or somatic mutations in the SUFU gene have recently been described in association with meningioma and chondrosarcoma (Aavikko et al., 2012[▶]; Kijima et al. ...

B1: MBP-SUFU-Δ: MBP-SUFU with amino acids 279–360 replaced by the heptamer sequence PSRGEDP (protein)
chain: PGLHAIYGECRRLYPDQPNPLQVTAIVKYWLGGPDPLDYVSMYRNVGSPSANIPEHWHYISFGLSDLYGDNRVHEFTGTDGPSGFGFELTFRLKRETGESAPPTWPAELMQGLARYVFQSENTFCSGDHVSWHSPLDNSESRIQHMLLTEDPQMQPVQTPFGVVTFLQIVGVCTEELHSAQQWNGQGILELLRTVPIAGGPWLITDMRRGETIFEIDPHLQERVDKGIETDGSNLSGVSAKCAWDDLPSRGEDPIRTRQLESVHLKFNQESGALIPLCLRGRLLHGRHFTYKSITGDMAITFVSTGVEGAFATEEHPYAAHGPWLQILLTEEFVEKMLEDLEDLTSPEEFKLPKEYSWPEKKLKVSILPDVVFDSPL
modifications: left off: MBP, N-terminal, kept | His6, C-terminal, state not stated
Consider B1, for which, in data set [1], the melting temperature (Tm) amounted to 46.6 °C.

B2: MBP-SUFU-FL: MBP fusion containing residues 32–483 of human SUFU and a C-terminal hexahistidine tag (protein)
chain: PGLHAIYGECRRLYPDQPNPLQVTAIVKYWLGGPDPLDYVSMYRNVGSPSANIPEHWHYISFGLSDLYGDNRVHEFTGTDGPSGFGFELTFRLKRETGESAPPTWPAELMQGLARYVFQSENTFCSGDHVSWHSPLDNSESRIQHMLLTEDPQMQPVQTPFGVVTFLQIVGVCTEELHSAQQWNGQGILELLRTVPIAGGPWLITDMRRGETIFEIDPHLQERVDKGIETDGSNLSGVSAKCAWDDLSRPPEDDEDSRSICIGTQPRRLSGKDTEQIRETLRRGLEINSKPVLPPINPQRQNGLAHDRAPSRKDSLESDSSTAIIPHELIRTRQLESVHLKFNQESGALIPLCLRGRLLHGRHFTYKSITGDMAITFVSTGVEGAFATEEHPYAAHGPWLQILLTEEFVEKMLEDLEDLTSPEEFKLPKEYSWPEKKLKVSILPDVVFDSPL
modifications: left off: MBP, N-terminal, kept | His6, C-terminal, state not stated
notes: MBP fusion containing residues 32–483 of human SUFU and a C-terminal hexahistidine tag
Regarding B2, the Tm in data set [1] amounted to 50.1 °C. Further, the protease-hypersensitive sites entry in the data set with trypsin is given as “Several protease-hypersensitive sites were found clustered within residues 299–363”.

B3: SUFU-FL: full-length SUFU, N-terminally Myc-tagged (protein)
chain: MAELRPSGAPGPTAPPAPGPTAPPAFASLFPPGLHAIYGECRRLYPDQPNPLQVTAIVKYWLGGPDPLDYVSMYRNVGSPSANIPEHWHYISFGLSDLYGDNRVHEFTGTDGPSGFGFELTFRLKRETGESAPPTWPAELMQGLARYVFQSENTFCSGDHVSWHSPLDNSESRIQHMLLTEDPQMQPVQTPFGVVTFLQIVGVCTEELHSAQQWNGQGILELLRTVPIAGGPWLITDMRRGETIFEIDPHLQERVDKGIETDGSNLSGVSAKCAWDDLSRPPEDDEDSRSICIGTQPRRLSGKDTEQIRETLRRGLEINSKPVLPPINPQRQNGLAHDRAPSRKDSLESDSSTAIIPHELIRTRQLESVHLKFNQESGALIPLCLRGRLLHGRHFTYKSITGDMAITFVSTGVEGAFATEEHPYAAHGPWLQILLTEEFVEKMLEDLEDLTSPEEFKLPKEYSWPEKKLKVSILPDVVFDSPLH
modifications: left off: Myc, N-terminal, kept
notes: full-length SUFU, N-terminally Myc-tagged
B3: the “repression of transcriptional activity induced by GLI2” value in the data set with GLI2 was “efficiently repressed”. Moreover, the “repression of transcriptional activity induced by GLI1” value with GLI1 [2] is reported as “efficiently repressed”. Also, the “GLI1 binding in Co-IP” value in the data set with GLI1 [3] was “no remarkable difference in GLI1 binding”. Besides, in data set [4], the “suppression of constitutive Hh pathway activity” value was “suppress constitutive pathway activity in Sufu ^−/− cells (c) with similar efficiency”.

B4: R123C: SUFU R123C mutation segregated with tumour development in a family predisposed to meningiomas (protein, UniProt Q9UMX1 1-484, looked up, variant R123C)
Suppressor of fused homolog: MAELRPSGAPGPTAPPAPGPTAPPAFASLFPPGLHAIYGECRRLYPDQPNPLQVTAIVKYWLGGPDPLDYVSMYRNVGSPSANIPEHWHYISFGLSDLYGDNRVHEFTGTDGPSGFGFELTFCLKRETGESAPPTWPAELMQGLARYVFQSENTFCSGDHVSWHSPLDNSESRIQHMLLTEDPQMQPVQTPFGVVTFLQIVGVCTEELHSAQQWNGQGILELLRTVPIAGGPWLITDMRRGETIFEIDPHLQERVDKGIETDGSNLSGVSAKCAWDDLSRPPEDDEDSRSICIGTQPRRLSGKDTEQIRETLRRGLEINSKPVLPPINPQRQNGLAHDRAPSRKDSLESDSSTAIIPHELIRTRQLESVHLKFNQESGALIPLCLRGRLLHGRHFTYKSITGDMAITFVSTGVEGAFATEEHPYAAHGPWLQILLTEEFVEKMLEDLEDLTSPEEFKLPKEYSWPEKKLKVSILPDVVFDSPLH
Regarding B4, the “inhibitory activity in cellular assays” value in data set [5] is reported as “reduced inhibitory activity”.
